Assay results reported in US12246067 (BIONTECH US, dated 2025).

Legend:
HLA-A03.01 = target: T1, HLA-A03.01 (human); assay: peptide-HLA class I complex stability, method not described
T1 construct: The assay format and the HLA construct are not described

HLA-A11.01 = target: T2, HLA-A11.01 (human); assay: as above
T2 construct: The assay format and the HLA construct are not described

HLA-A02:01 [1] = target: T3, HLA-A02:01 (human); assay: measured peptide-HLA affinity; method not detailed
T3 construct: only the allele is given; also called HLA-A02:01 allele protein

HLA-A02:01 [2] = target: T3, HLA-A02:01; assay: measured peptide-HLA complex stability; method not detailed

VVVGADGVGK [KRAS, G12D peptide VVVGADGVGK]
Measured stability (HLA-A03.01): 2.3 h
Measured stability (HLA-A11.01): 13 h

VVVGAVGVGK [KRAS, G12V peptide VVVGAVGVGK]
Measured stability (HLA-A03.01): 6.7 h
Measured stability (HLA-A11.01): 24.3 h

VVGACGVGK [KRAS, G12C peptide VVGACGVGK]
Measured stability (HLA-A03.01): 5 h
Measured stability (HLA-A11.01): 10 h

VVGADGVGK [KRAS, G12D peptide VVGADGVGK]
Measured stability (HLA-A11.01): 3.4 h

FLVVVGACGV [KRAS G12C affinity-enhanced peptide FLVVVGACGV]
Measured Affinity (HLA-A02:01 [1]): 4.2 nM
Measured stability (HLA-A02:01 [2]): 7.4 h

FMVVVGACGV [KRAS G12C affinity-enhanced peptide FMVVVGACGV]
Measured Affinity (HLA-A02:01 [1]): 1.1 nM
Measured stability (HLA-A02:01 [2]): 5.4 h

FMVVVGACGI [KRAS G12C affinity-enhanced peptide FMVVVGACGI]
Measured Affinity (HLA-A02:01 [1]): 17 nM
Measured stability (HLA-A02:01 [2]): 1 h

MLVVVGACGV [KRAS G12C affinity-enhanced peptide MLVVVGACGV]
Measured Affinity (HLA-A02:01 [1]): 18.2 nM
Measured stability (HLA-A02:01 [2]): 1.7 h

MMVVVGACGV [KRAS G12C affinity-enhanced peptide MMVVVGACGV]
Measured Affinity (HLA-A02:01 [1]): 18.9 nM
Measured stability (HLA-A02:01 [2]): 2.1 h

FMVVVGACGL [KRAS G12C affinity-enhanced peptide FMVVVGACGL]
Measured Affinity (HLA-A02:01 [1]): 85.3 nM
Measured stability (HLA-A02:01 [2]): 0.9 h

YLVVVGACGV [KRAS G12C affinity-enhanced peptide YLVVVGACGV]
Measured Affinity (HLA-A02:01 [1]): 3.9 nM
Measured stability (HLA-A02:01 [2]): 9.3 h

FLVVVGACGL [KRAS G12C affinity-enhanced peptide FLVVVGACGL]
Measured Affinity (HLA-A02:01 [1]): 69.4 nM
Measured stability (HLA-A02:01 [2]): 1.4 h

FLVVVGACGI [KRAS G12C affinity-enhanced peptide FLVVVGACGI]
Measured Affinity (HLA-A02:01 [1]): 27.8 nM
Measured stability (HLA-A02:01 [2]): 1.4 h

YMVVVGACGV [KRAS G12C affinity-enhanced peptide YMVVVGACGV]
Measured Affinity (HLA-A02:01 [1]): 7 nM
Measured stability (HLA-A02:01 [2]): 6.4 h

KMVVVGACGV [KRAS G12C affinity-enhanced peptide KMVVVGACGV]
Measured Affinity (HLA-A02:01 [1]): 11.9 nM
Measured stability (HLA-A02:01 [2]): 3.8 h
